In paper PMC6304784:

What was measured:
[1] = target: N-terminally GFP-tagged full-length wild-type MyD88 (human) (UniProt Q99836); test: single-molecule fluorescence fluctuation spectroscopy (brightness B parameter, time-traces, intensity histograms); GFP-tagged protein freely diffusing in the cell-free expression mixture on a confocal microscope, 488-nm laser; dilution series of the DNA template giving 0 to about 320 nM protein; mutants compared at 150 nM; samples diluted 10 times in buffer A
[2] = target: mCherry-tagged full-length wild-type MyD88 (human) (UniProt Q99836); test: two-colour single-particle coincidence spectroscopy (seeding assay); mCherry-tagged full-length MyD88 filaments spun down and sonicated ('seeds') added to GFP-tagged full-length MyD88 expressed over a range of concentrations (10 nM and above); 488 nm and 561 nm lasers; traces of 180 s
mCherry-tagged full-length wild-type MyD88 (human), sequence (Q99836 whole entry): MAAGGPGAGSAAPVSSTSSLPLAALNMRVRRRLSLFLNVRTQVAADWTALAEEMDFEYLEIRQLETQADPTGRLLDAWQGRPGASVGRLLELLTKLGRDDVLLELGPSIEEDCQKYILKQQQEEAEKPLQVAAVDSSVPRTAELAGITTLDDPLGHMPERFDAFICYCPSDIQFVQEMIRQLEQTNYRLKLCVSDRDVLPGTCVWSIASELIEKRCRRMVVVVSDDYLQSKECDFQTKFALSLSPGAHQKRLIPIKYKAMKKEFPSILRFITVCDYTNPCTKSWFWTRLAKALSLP

[3] = target: N-terminally GFP-tagged full-length wild-type MyD88 (human) (UniProt Q99836); test: fluorescence correlation spectroscopy (FCS); GFP-tagged protein in the cell-free expression mixture; single diffusing species model; hydrodynamic radius normalised to sfGFP

critical concentration for aggregation (Cc) [1]: 150 nM
stoichiometry N [1]: > 100 proteins
stoichiometry N (monomeric units) [3]: > 100
Substance: N-terminally GFP-tagged full-length wild-type MyD88 (from UniProt Q99836 1-296) (natural protein)
critical concentration for polymerisation in the presence of seeds [2]: 10 nM
